Assays:
mouse PAI-1 = biological target: T1, mouse PAI-1 (mouse, UniProt P22777 23-402); test: sandwich ELISA: plate coated with recombinant mouse PAI-1, diabody, mouse TAFI, HRP-conjugated MA-TCK32G12
T1 construct: also called recombinant mouse PAI-1
T1 sequence (looked up): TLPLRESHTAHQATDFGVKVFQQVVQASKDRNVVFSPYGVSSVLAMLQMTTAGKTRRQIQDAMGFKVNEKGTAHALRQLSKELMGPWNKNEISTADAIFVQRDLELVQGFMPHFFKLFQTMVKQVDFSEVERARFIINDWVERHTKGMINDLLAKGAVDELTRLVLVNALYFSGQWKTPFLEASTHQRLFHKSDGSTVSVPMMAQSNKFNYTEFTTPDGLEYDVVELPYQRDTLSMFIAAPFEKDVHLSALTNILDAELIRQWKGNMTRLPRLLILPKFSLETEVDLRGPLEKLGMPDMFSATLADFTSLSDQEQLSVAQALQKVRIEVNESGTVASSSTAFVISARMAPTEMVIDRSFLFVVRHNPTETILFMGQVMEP
Description: (§1) Db-TCK26D6x33H1F7 (0.8 mg/kg) was administered IV via tail vein injection in mice (n=6). Prior to the experiment, blood was withdrawn on 0.38% trisodium citrate (=pre-sample). Post injection, blood was withdrawn on 0.38% trisodium citrate at several time points: 5 min, 45 min, 3 hours, 6 hours and 24 hours. Diabody concentrations in corresponding plasma samples were determined by an ELISA based on the simultaneous binding of the diabody towards PAI-1 and TAFI. Wells of polystyrene microtiter plates were incubated with 200 μl recombinant mouse PAI-1 in PBS (pH 7.4; 4 μg/ml) for 72 hours at 4° C., emptied and treated for two hours with PBS supplemented with 1% (m/v) bovine serum albumin. After washing, serial two-fold dilutions (180 μl) of plasma samples were added to the wells and incubated overnight at 4° C. Then, the wells were washed and incubated with 170 μl mouse TAFI (0.1 μg/ml) for 2 hours at room temperature. Subsequently, plates were washed and 160 μl HRP-conjugated MA-TCK32G12 (directed against TAFI) was added to the wells followed by incubation for 2 hours at room temperature. All washing steps were performed with PBS containing Tween 80 (0.002%) and dilutions were made in PBS containing Tween 80 (0.002%) and bovine serum albumin (0.1% m/v). […] The absorbance was measured at 492 nm. […]

mouse TAFI = biological target: T2, mouse TAFI (mouse, UniProt Q9JHH6 22-422); test: as above
T2 construct: also called Carboxypeptidase B2 (CPB2)
T2 sequence (looked up): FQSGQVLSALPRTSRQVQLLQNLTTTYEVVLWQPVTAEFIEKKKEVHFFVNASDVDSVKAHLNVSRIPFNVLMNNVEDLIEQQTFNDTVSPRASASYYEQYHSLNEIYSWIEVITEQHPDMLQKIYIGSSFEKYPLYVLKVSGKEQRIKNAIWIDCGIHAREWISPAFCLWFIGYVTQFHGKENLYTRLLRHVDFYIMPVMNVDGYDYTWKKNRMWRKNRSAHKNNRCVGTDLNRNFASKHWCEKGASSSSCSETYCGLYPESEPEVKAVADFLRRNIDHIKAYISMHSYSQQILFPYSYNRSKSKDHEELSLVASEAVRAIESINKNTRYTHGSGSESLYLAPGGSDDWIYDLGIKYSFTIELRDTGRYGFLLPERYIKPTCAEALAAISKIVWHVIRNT
Description: as §1

B1: Db-TCK26D6x33H1F7 (bispecific antibody)
chain 1: QVQLQQSGPELVKPGASVKISCKASGYTFTDNNMDWAKQSHGKSLEWIGSIYSNNGGTIYNQKFKGKATLNVDTSSSTAYMELRSLTSEDTAVYYCAREMSDGPYWFFDVWGTGTTVTVSGAKTTPKLGGDIQMTQSPSSLSASLGDRVTISCRASQDISNFLDWYQQKPDGTVKLLIYYTSRLHSGVPSRFSGSGSGTDYSLTISKLEQEDIATYFCQQGNTFPPTFGGGTKLEIKRADAAAAGSEQKLISEEDLNSHHHHHH
chain 2: QVQLQQSGAEVVKPGASVKLACTASGFNIKDTYIHWVKQGPEQGLEWIGRIDPANGNTKYDSKFQDKATITADTSSNTAYLHLSSLTSEDTAVYYCVRGDYDYVYFDYWGQGTTVTVSSAKTTPKLGGDIQMTQSPASLSVSVGETVTITCRASENIFRNLVWYQQKQGKSPQLLVYSATNLVDGVPSRFSGSGSGTQYSLKINSLQSEDFGSYYCQHFWGTPRTFGGGTKLEIKRADTAPTGSEQKLISEEDLNSHHHHHH
notes: also called diabody
binding result (mouse PAI-1): binds | binding result (mouse TAFI): binds
